The source of these data is PMC3701909, “Direct single molecule measurement of TCR triggering by agonist pMHC in living primary T cells” (eLife, 2013).

Assay [1] concerns the target phosphorylated ITAM domains on the cytoplasmic side of TCR engaged with pMHC (TCR complex, 10 ITAM domains) (mouse (endogenous in primary T cells)). The assay can be described thus: two-color single molecule fluorescence tracking (TIRF); ZAP70-EGFP intensity integrated over a 315 nm square centred on each pMHC:TCR complex in live T cells; change-point analysis; intensity calibrated with single ZAP70-EGFP molecules of the same cell; dwell times not corrected for photobleaching.

The target of assay [2] is MCC agonist pMHC: MHC class II I-E^k loaded with MCC(C) peptide labelled with Atto647N (not stated | moth) (UniProt P04230). The assay can be described thus: two-color single molecule fluorescence tracking (TIRF); agonist pMHC (MCC-Atto647N) on a supported lipid bilayer; live T cells expressing ZAP70-EGFP; 1 frame/s, 500 ms integration; pair pMHC and TCR.
In assay [3] the target is MCC agonist pMHC: MHC class II I-E^k loaded with MCC(C) peptide labelled with Atto488 (not stated | moth) (UniProt P04230). The assay can be described thus: single molecule fluorescence tracking (TIRF); pMHC (Atto488 on the peptide) tethered by His tags to a Ni-NTA supported lipid bilayer with ICAM1-TagBFP; live primary T cell blasts added; 500 ms exposure, 1-10 s time lapse; dwell time of the slow-moving pMHC corrected for photobleaching; 37°C, imaging buffer; also at 100 molecules/µm^2 and with Latrunculin A.

Another assay deals with 5c.c7 TCR. The assay can be described thus: single molecule tracking of agonist pMHC:TCR dwell times in hybrid live T cell-supported membrane junctions. Format: binding, mouse. The note with it: 5c.c7 T cells, 37 °C, compared with same-day control. An excerpt: (§1) We probe agonist pMHC:TCR complex dynamics in hybrid live cell—supported membrane junctions([Grakoui et al., 1999]) (Figure 1A). The supported membrane is functionalized with MHC (IE^k) and intercellular adhesion molecule-1 fusion with a blue fluorescent protein (ICAM1-TagBFP), both linked to the membrane via C-terminal poly-His tag binding to Ni-chelating lipids ([Nye and Groves, 2008]). The MHC is loaded with peptide (moth cytochrome c [MCC] agonist or null), which is covalently coupled in a 1:1 stoichiometry (verified by HPLC) to the photostable fluorophores Atto647N or Atto488 using maleimide-thiol chemistry. […]
(§2) Since the slow-moving pMHC can be clearly resolved from the fast moving component, the lifetime of molecules in this bound state is directly observable. […] Unbinding and photobleaching are indistinguishable in fluorescence methods such as this. […]
(§3) TIRF experiments were performed on an inverted microscope (Nikon Eclipse Ti; Technical Instruments, Burlingame, CA) using a custom-built laser launch with 488 nm (Sapphire HP; Coherent Inc., Santa Clara, CA) and 640 nm (Cube; Coherent Inc.) diode lasers, as described previously ([Smith et al., 2011]). Laser powers measured at the sample were 0.8 mW (640 nm) and 0.5 mW (488 nm) for 500 ms exposures and 4.4 mW (640 nm) for 17.5 ms exposures. […]

A further assay concerns AND TCR. The assay is described as above. Format: binding, mouse. The following applies: AND T cells, 37 °C, compared with same-day control.
Text: as §1, §2, §3

In the case of “enhanced green fluorescent protein fused to CD3 zeta-chain-associated protein of 70 kDa (Zap70-EGFP) (from UniProt P43404 1-618) (enzyme)”, in assay [1], the ZAP70 molecules (EGFP-tagged and endogenous) per feature (ZAP70 molecules per feature) came to 6; the molecular binding dwell time was 12 to 107 s; the stoichiometry N (ZAP70-EGFP per feature) is 2.9.
Consider AND TCR, for which the stoichiometry N in assay [2] is 1. Further, the mean dwell time 〈τoff〉 in assay [3] was 53.8 s.
Regarding `C/C1=C/C(=O)O[C@@H]2C[C@@H](CC[C@H](C)/C=C\C=C\CC1)O[C@@](O)([C@@H]1CSC(=O)N1)C2` [Latrunculin A], the “effect of cytoskeleton disruption on agonist pMHC binding kinetics” value in the assay with 5c.c7 TCR was “no significant effect”. For the same molecule, the “effect of cytoskeleton disruption on ⟨τoff⟩ of agonist pMHC” value with AND TCR is recorded as “moderately increases”.

By stoichiometry N is commonly meant the number of molecules, sites or subunits per partner or assembly.
